Experimental data: the supplement of paper PMC9170038

System: MS2 coat protein
Assay: apparent KD of MS2 coat protein; designed switch direction (-1 OFF switch, 1 ON switch): 1; higher = weaker reporter binding
Method in brief: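 Designed RNA switches sharing common flanks were transcribed on Illumina chips by stalled E. coli RNA polymerase. They were titrated with SNAP-549-labelled MS2 coat protein, from 0.7 or 1.5 nM doubling to 3 µM, in Tris-HCl pH 7.5 buffer with KCl, MgCl2, BSA, DTT, tRNA and Tween-20. Titrations ran without input, with 200 uM small-molecule ligand, or with an oligonucleotide input. The apparent KD of each design is the median over its clusters, after curve-fitting of normalised cluster fluorescence.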

[1] = input ligand: microRNA oligo, concentration not stated
[2] = Eterna round: R95, input ligand: FMN 200 uM
[3] = Eterna round: R95, input ligand: microRNA oligo, concentration not stated
[4] = Eterna round: R95, input ligand: none

Row | Sequence | apparent KD of MS2 coat protein (input ligand: FMN 200 uM) [nM] | apparent KD of MS2 coat protein [1] [nM] | apparent KD of MS2 coat protein (input ligand: none) [nM] | apparent KD of MS2 coat protein [2] [nM] | apparent KD of MS2 coat protein [3] [nM] | apparent KD of MS2 coat protein [4] [nM]
1 | ACUUAGUACAAUUUAGAUCUACAUGAGGAUCACCCAUGUACUGAGGAUAUCAGCUCGAUUAGAGCUGAGAAGGCAGUAGUACUA [SSNG3/9-A2] (Eterna round: R96, puzzle: Same State NG 3) | 33.3 | 35 | 53.9 |  |  | 
2 | UUAAUUAGUUGAGGAUAUUAUGUCGACUGAGACGACAUGAGGAUCACCCAUGUGAGAAGUGGUUUUAAGAAGGCAACAUUCAUA [JR_SSNG2_Sub088] (Eterna round: R96, puzzle: Same State NG 2) | 55.9 | 83 | 141 |  |  | 
3 | GUGGUCUGACAUGAGGAUCACCCAUGUGGAAUAAAUACGGGUUAGGAUAUCUUGAGGAUCACCCAAGAGAAGGGAUGGACCGUU (Eterna round: R96, puzzle: Same State NG 3) | 36.3 | 30.9 | 47.5 |  |  | 
4 | AGCUAAAACGAAGGAUAUACAGACAUGAGGAUCACCCAUGUAUACAUGAUUUAUUGUGAUCACAUGUAGAAGGUCGUACUAACA [SameState NG2 #20] (Eterna round: R96, puzzle: Same State NG 2) | 190 | 649 | 681 |  |  | 
5 | GCGAGCGUACUUGCAACAUGAGGAUCACCCAUGUUAACUGGACAGGAUAUGGUACCGUUUCGGUACCAGAAGGGUUUUACAUGU [JL SSNG3 3.65] (Eterna round: R96, puzzle: Same State NG 3) | 35.1 | 29.1 | 35.6 |  |  | 
6 | ACCUUGUGGGUAGGAUAUUUAGGAUAUGCGGAAGACUAAGUCUGUAGGUCACCUAACGCAGAAGGAGAGAAGGACCCUUCAGCA [pwkr ssNG2 2FMN + F9.31] (Eterna round: R96, puzzle: Same State NG 2) | 109 | 3.66 | 4.74 |  |  | 
7 | AAUUAAGAUUAAGGAUAUCACGUCGAUUAGACGUGAGAAGGUGAUCAUAACAUGAGGAUCACCCAUGUAUUACAUGAAUUAAUU [SSNG1/3-B2] (Eterna round: R96, puzzle: Same State NG 1) | 132 | 113 | 118 |  |  | 
8 | AAAGGAUGAUGUUACAUGAGGAUCACCCAUGUAGUGAUAACUAAGGAUAUGUGUUAAACAAGUUAAUAGAAGGUAGGAUCAUUA [AK SSNG3-V2-7] (Eterna round: R96, puzzle: Same State NG 3) | 73.9 | 52 | 69.4 |  |  | 
9 | AUUAACUUGAGAGGAUAUGUAGAGGAUCACCCUACAGAAGGCUCGUUAGAGAGGAUAUGUAGAGGAUCACCCUACAGAAGGCUC [pwkr ssNG DX.9] (Eterna round: R96, puzzle: Same State NG 1) | 95.1 | 82.4 | 88.7 |  |  | 
10 | AAUCGUUUGAUAGGAUAUCGCUAUACAUGAGGAUCACCCAUGUUUACCACGCUGGUUUUUCAUACCGAGAAGGAUUCUGAUGAA [salish99_SSNG02_r04_003] (Eterna round: R96, puzzle: Same State NG 2) | 31.5 | 27.1 | 33.4 |  |  | 
11 | GUACUACAUGAGGAUCACCCAUGUACAAAAGUACGAGGAUAUGCAUGGACGAAAGUUGGUGCAGAAGGCGUAGUAC [Pin2Pin #3] (puzzle: Same State 1) |  |  |  | 20.2 | 25.9 | 24
12 | CCAUAACGGUGAGGAUAUUGUUGCGAUAAGUGACGAGAAGGCAUUCAUGUGAAAUAAACAUACAUGAGGAUCACCCAUGUUGUA [Omei SS(NG)1 Bv3] (Eterna round: R96, puzzle: Same State NG 1) | 22.6 | 40.8 | 50.2 |  |  | 
13 | UGCUAUUGUAUAUUGGUGCAAGCUUUUUGACAUGAGGAUCACCCAUGUACUCGUCUUAUGUGCAGUCCGUAGACUGC [JL-shm-2.24 Brourd mod] (puzzle: Sensor for hsa-mir-208a) |  |  |  | 47.8 | 13.4 | 45.6
14 | GGAGCCGGUACUGAGGAUAUUCAUAUUAAAACAUGAGGAUCACCCAUGUAGGCCGGAAGGCCUUGGGAGAAGGCAGACCAGCUCG [Atgexeedri - 7] (puzzle: Same State 2) |  |  |  | 23.1 | 255 | 441
15 | GGCCUGCCGCAAGGAUAUGAAGCUUUCGCUCCGUCAGAAGGUGCACAUGAGGAUCACCCAUGUAGGCAGGCCAAGAACUAAAAC [Veveanus] (Eterna round: R96, puzzle: Same State NG 1) | 213 | 42 | 123 |  |  | 
16 | AAUUAUUAACAUGAGGAUCACCCAUGUGUUUUUGGGCUCGUUUUAUUUAUUAUUAUUAUUAUUAUUAUUAUUAUUAA [SB switch1] (puzzle: Sensor for hsa-mir-208a version 2) |  |  |  | 85.3 | 69.1 | 154

Row | Sequence | apparent KD of MS2 coat protein (input ligand: FMN 200 uM) [nM] | apparent KD of MS2 coat protein [1] [nM] | apparent KD of MS2 coat protein (input ligand: none) [nM] | apparent KD of MS2 coat protein [2] [nM] | apparent KD of MS2 coat protein [3] [nM] | apparent KD of MS2 coat protein [4] [nM]
17 | ACAUGAAAGGCAGGAUAUUUUGUACCUACAUGUGACAUGAGGAUCACCCAUGUGGUAAGUAUAAGAGAGAAGGGUCAGAUAUGU [Equivalence 2 - Jieux - Same State NG 2] (Eterna round: R96, puzzle: Same State NG 2) | 28.9 | 31.7 | 37.2 |  |  | 
18 | AUAAUAAUAACUGAGGAUAUGUUGAUAAAGACAUGAGGAUCACCCAUGUGAAAUAAAAUAAUAAUACAGAAGGCAGAAUAAUAAA [JMF's solution 1] (puzzle: Same State 2) |  |  |  | 23 | 29.7 | 25.7
19 | GCUCGGCUGAUGGCCCACAUGAGGAUCACCCAUGUGACUGGGCAGGAUAUCUAGAUGCAGGAUGUAGAGAAGGGCCUGCCGAGC [SameState NG3 #41] (Eterna round: R96, puzzle: Same State NG 3) | 358 | 98.8 | 155 |  |  | 
20 | GUAGCAUACCGAGGAUAUUCAUAUAUACAUGAGGAUCACCCAUGUUAAAAUAGGCGAAAGCCUUGGGAGAAGGCGGAAUGCUAC [Xeonanis - 20 Mod67] (Eterna round: R96, puzzle: Same State NG 2) | 9.45 | 11.4 | 15 |  |  | 
21 | GUAGCAUACCGAGGAUAUUCAUAUUAACAUGAGGAUCACCCAUGUUUAGGCCGAUUACGGCCUUGGGAGAAGGCGGAAUGCUAC [Xeonanis - 20 Mod22] (Eterna round: R96, puzzle: Same State NG 2) | 10.9 | 14.9 | 25.1 |  |  | 
22 | AUAAAACAUGAGGAUCACCCAUGUCAACAAAGUCGAGGAUAUGGGCAAUUAAAAUAAGAACCAGAAGGCGAAUAAU [salish99_ss1_r3_025] (Eterna round: R96, puzzle: Same State 1) | 35.7 | 214 | 250 |  |  | 
23 | GCCGCAAGGGCAGGAUAUGGGUCCAGAACGCAAAUGCGCUCUGGUACAUGAGGAUCACCCAUGUCCCAGAAGGGCCCAAGCGGC [Isusara] (Eterna round: R96, puzzle: Same State NG 2) | 16.5 | 96.5 | 106 |  |  | 
24 | CUCGAGAGGUUAUAGGAUAUCCAUUUACGUACAUGAGGAUCACCCAUGUCUGACCGCUGGGUCAGGGAGAAGGGUAAGAUCGAGA [Tegeoror] (puzzle: Same State 2) |  |  |  | 275 | 420 | 600
25 | GUGGUCAGACAUGAGGAUCACCCAUGUGGAAUAAAUAAGGAACAGGAUAUGGAAUAUAGGAUAUACCAGAAGGGUUGGUUGGUG (Eterna round: R96, puzzle: Same State NG 3) |  | 62.3 |  |  |  | 
26 | CGGCGCUGUCGAGAGGAUAUGCGGUGAUGGACAUGAGGAUCACCCAUGUUAGCGAUAGCAUCACGGUAGAAGGCUCUACGGCUUG [Soteed Omei mod 21] (puzzle: Same State 2) |  |  |  |  | 31 | 
27 | AAUUAAUUAAUUAAGUACAUGAGGAUCACCCAUGUAAGUGAUCAGGAUAUCAGCUCGAUUAGAGCUGAGAAGGGAUCCAUGUAC [SSNG3/15-A2] (Eterna round: R96, puzzle: Same State NG 3) |  | 400 |  |  |  | 
28 | UCUUGGUUUUUGCUCGUUUUUUGUGUUGAACAUGAGGAUCACCCAUGUAUUGUACGGUCCAGUUUAAUAAUGGUCCG [JMF 30] (puzzle: Sensor for hsa-mir-208a) |  |  |  | 23.4 | 14 | 25
29 | AAUUAAUUAAUUAAUAUACAUGAGGAUCACCCAUGUAAGAUCAAGGAUAUCAGCUCGUGUAGAGCUGAGAAGGUGAUCACAUGU [SSNG3/16-A4] (Eterna round: R96, puzzle: Same State NG 3) | 345 | 92.5 | 166 |  |  | 
30 | UUAAAACAUGAGGAUCACCCAUGUCAACAAAGUCGAGGAUAUGGGCAAAUAAAAUAAGAACCAGAAGGCGAAUAAG [salish99_SS1_r3_005] (puzzle: Same State 1) |  |  |  | 36.9 | 221 | 314
31 | GGAGCCAAGGCAGGAUAUUCAUAUUAAUUACAUGAGGAUCACCCAUGUUGGGCCAGAAGGCCUUGGGAGAAGGGCCAUGGCUCG [Xeonanis - 13 mod18] (Eterna round: R96, puzzle: Same State NG 2) | 27.1 | 56.5 | 84 |  |  | 
32 | GUGGUCUGACAUGAGGAUCACCCAUGUGGAAUAAAUACGGGUUAGGAUAUCUUGAGGAUCACCCAAGAGAAGGGAUGGAUGGUC (Eterna round: R96, puzzle: Same State NG 3) |  | 71 |  |  |  | 
